Laboratory results as given in paper PMC9482650, “Quantitative fragmentomics allow affinity mapping of interactomes” (Nature Communications, 2022).

T1: CARD11, Q9BXL7
T1 sequence (Q9BXL7 662-765, limits assumed, looked up): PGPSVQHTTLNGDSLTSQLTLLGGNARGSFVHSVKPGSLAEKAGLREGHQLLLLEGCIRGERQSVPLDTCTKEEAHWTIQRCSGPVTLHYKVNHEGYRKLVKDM

T2: DLG3_2, Q92796
T2 sequence (Q92796 221-321, limits assumed, looked up): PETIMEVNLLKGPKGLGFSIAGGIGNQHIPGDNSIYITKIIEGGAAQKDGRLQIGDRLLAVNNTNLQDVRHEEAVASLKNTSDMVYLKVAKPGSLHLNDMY


Key:
Experiment in all cases: holdup assay
Set-up in all cases: key: below the threshold = too weak to quantify, mostly under pKd 3.1 to 4
Settings in all cases: plain residues with an end cap or a label only (N-terminal biotin on a linker: ado-ado)
CARD11, Q9BXL7 = biological target: T1, CARD11, Q9BXL7
DLG3_2, Q92796 = biological target: T2, DLG3_2, Q92796
LNX1_2, Q8TBB1 = biological target: LNX1_2, Q8TBB1
Sequence of LNX1_2, Q8TBB1 (Q8TBB1 371-470): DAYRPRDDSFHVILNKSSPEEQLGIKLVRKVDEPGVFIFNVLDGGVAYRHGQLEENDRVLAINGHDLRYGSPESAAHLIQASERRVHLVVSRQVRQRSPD

Binder | pKd (CARD11, Q9BXL7) | pKd (DLG3_2, Q92796) | pKd (LNX1_2, Q8TBB1)
QRYPGNQTTC [CCL24, O00175] | below the threshold | 4.26 | 3.49
HLSTRQGTCV [ATRNL1, Q5VV63] | below the threshold | 4.22 | 3.71
DSEEELPTRL [GRK6, P43250] | below the threshold | 3.66 | below the threshold
LLQEEWETVM [PTH1R, Q03431] | below the threshold | below the threshold | below the threshold
PAALPESTHM [SLC9A3, P48764] | below the threshold | below the threshold | below the threshold
PSDSVGKDVF [EGLN1, Q9GZT9] | below the threshold | 4.07 | below the threshold
HDDYFYHDEL [RCN2, Q14257] | below the threshold | below the threshold | below the threshold
VYEVPVETKF [SLC26A3, P40879] | below the threshold | 4.13 | below the threshold
THREVKFTSL [CD46, P15529] | below the threshold | 4.23 | below the threshold
DFKHTKSFII [JAM2, P57087] | below the threshold | 4.2 | below the threshold
SSSVNVSSNL [CXCR1, P25024] | below the threshold | below the threshold | below the threshold
EPAKETTTNV [SLC2A3, P11169] | below the threshold | 4.15 | below the threshold
KLQNPNQSVV [TYRP1, P17643] | below the threshold | 3.86 | below the threshold
STYCDYTIEI [FAM71C, Q8NEG0] | below the threshold | below the threshold | 4.35
FVFESRKEIL [TBPL1, P62380] | below the threshold | below the threshold | below the threshold
NTALVESEDL [PALLS, Q8WX93;Q8WX93-1] | below the threshold | below the threshold | below the threshold
MQILSKPEFI [NPSR1, Q6W5P4] | below the threshold | 4.18 | below the threshold
SGDGKTSVWI [GJC1, P36383] | below the threshold | 4.16 | 4.03
IKLETKKTKL [SLC15A2, Q16348] | below the threshold | below the threshold | below the threshold
MLPANYVEAI [NEB, P20929] | below the threshold | 4.11 | below the threshold
PGKKPEDSRV [SLCO2B1, O94956] | below the threshold | below the threshold | below the threshold
KPDKQEEFYA [SDC3, O75056] | below the threshold | 4.05 | below the threshold
PLATCDETSI [SEMA4F, O95754] | below the threshold | 4.3 | below the threshold

Binder | pKd (CARD11, Q9BXL7) | pKd (DLG3_2, Q92796) | pKd (LNX1_2, Q8TBB1)
PLPPEEESWV [GAS2L2, Q8NHY3] | below the threshold | 4.64 | 3.94
KEKASTETEC [TRPM1, Q7Z4N2] | below the threshold | 3.92 | below the threshold
GNDPDRGTSI [GRID2, O43424] | below the threshold | 4.25 | below the threshold
KKTPVSRSHL [SLC22A3, O75751] | below the threshold | below the threshold | below the threshold
KIEDVEITLV [FCHSD2, O94868] | below the threshold | 3.53 | 4.55
KAEEKPPSKV [SCN4B, Q8IWT1] | below the threshold | below the threshold | below the threshold
NISARRFTLC [FAM167B, Q9BTA0] | below the threshold | 4.42 | 4.62
LPPPESESKV [KCNJ9, Q92806] | 3.73 | 4.23 | below the threshold
EFKQTSSFLV [JAM1, Q9Y624] | below the threshold | 4.2 | 4.26
PKSNSSKEYV [CLDN7, O95471] | below the threshold | below the threshold | below the threshold
GTMFLRETSL [GUCY1A2, P33402] | below the threshold | 4.51 | below the threshold
LVEEEEPMNL [HDAC7, Q8WUI4] | below the threshold | below the threshold | below the threshold
SQPLLVHDDV [KIT, P10721] | below the threshold | below the threshold | below the threshold
HYPASPDSWV [CTNND2, Q9UQB3] | below the threshold | 4.3 | 3.8
TKDKVQETQI [LRRC4, Q9HBW1] | below the threshold | 4.57 | below the threshold
RDYTQSSSSL [GRM5, P41594] | below the threshold | 3.96 | below the threshold
QKNKDREYYV [NRXN3, Q9HDB5] | below the threshold | 3.65 | 4.08
ADEMICITTL [CACNA1D, Q01668] | below the threshold | 4.46 | below the threshold
NNMAFETTHF [SLC5A12, Q1EHB4] | below the threshold | 4.08 | below the threshold
SKQFDKNAYV [CLDN10, P78369] | below the threshold | below the threshold | below the threshold
QKASRNESTF [POLR1D, P0DPB6] | below the threshold | 4.23 | below the threshold
RSPVATATSC [DUSP5, Q16690] | below the threshold | 4.18 | below the threshold
VCMGDHWFDV [PRKN, O60260] | below the threshold | below the threshold | 4.07
